According to US20230096452A1 (SHANGHAI ESCUGEN BIOTECHNOLOGY, published 2023):

Legend:
[1] = target: human claudin 18.2 (hCLDN18.2) (human); test: cell-based or functional assay
[2] = target: T1, human claudin 18.2 (hCLDN18.2) (human); test: flow cytometry on HEK293-hCLDN18.2 cells; 1 ug/mL; not heat treated
T1 construct: also called CLDN18 splice variant 2; HEK293-hCLDN18.2
Description: (§1) The well-grown HEK293-hCLDN18.2 stably transfected cell line and the hCLDN18.2 low-expressing KATOIII human gastric cancer cell line sorted and enriched by flow cytometry were digested with trypsin, and resuspended to adjust the cell concentration to 1.5×10⁶˜2×10⁶/mL, added to a 96-well U-plate at 100 μL/well (150,000 to 200,000 cells/well). Washing once with PBS buffer containing 1% fetal bovine serum (FBS). The antibody solution (100 μL/well) with the test concentration prepared in PBS (+1% FBS) was added, mixed with the cells, and incubated at 4° C. for 1 hour. Cells were centrifuged at 200 g and washed once with PBS (+1% FBS). […] Cells were centrifuged at 200 g and washed twice with PBS (+1% FBS), then resuspended in 100 μL of PBS (+1% FBS) for flow cytometric analysis. […] In the study of the effect of heat treatment on the binding properties of antibodies, the antibody to be tested was heat-treated at 70° C. for 5 minutes on a PCR machine, and then incubated with cells for binding.

[3] = target: T1, human claudin 18.2 (hCLDN18.2); test: flow cytometry on HEK293-hCLDN18.2 cells; 5 ug/mL; not heat treated
Description: as §1

[4] = target: T1, human claudin 18.2 (hCLDN18.2); test: flow cytometry on HEK293-hCLDN18.2 cells; 0.2 ug/mL; not heat treated
Description: as §1

[5] = target: T1, human claudin 18.2 (hCLDN18.2); test: flow cytometry (direct FACS binding, equilibrium at 4 C) on HEK293-hCLDN18.2 cells
Description: After resuscitation of HEK293 cells (HEK293-hCLDN18.2) stably expressing CLDN18.2, they were cultured and passaged until a certain number of cells were reached. The cells were distributed to 1 mL centrifuge tubes at a density of 5×10⁴/mL, and centrifuged for use. […] To eliminate ligand depletion effects (Ligand Depletion), antibody concentration series were prepared using PBS binding buffer diluted to the corresponding ligand depletion volume. HEK293-hCLDN18.2 cells were mixed and incubated with serial concentrations of antibodies formulated to the ligand elimination volume, and incubated at 4° C. until equilibrium.

[6] = target: T1, human claudin 18.2 (hCLDN18.2); test: flow cytometry on HEK293-hCLDN18.2 cells; 1 ug/mL; antibody heat treated at 70 C for 5 min
Description: as §1

[7] = target: T1, human claudin 18.2 (hCLDN18.2); test: flow cytometry on HEK293-hCLDN18.2 cells; 5 ug/mL; antibody heat treated at 70 C for 5 min
Description: as §1

[8] = target: T1, human claudin 18.2 (hCLDN18.2); test: flow cytometry on HEK293-hCLDN18.2 cells; 0.2 ug/mL; antibody heat treated at 70 C for 5 min
Description: as §1

[9] = target: T2, mouse claudin 18.2 (mCLDN18.2) (mouse, UniProt P56857 10-264); test: flow cytometry, HEK293-mCLDN18.2 cells, fixed and non-fixed
T2 construct: the stomach-type (A2) isoform is meant; also called m hCLDN18.2; HEK293-mCLDN18.2
T2 chain: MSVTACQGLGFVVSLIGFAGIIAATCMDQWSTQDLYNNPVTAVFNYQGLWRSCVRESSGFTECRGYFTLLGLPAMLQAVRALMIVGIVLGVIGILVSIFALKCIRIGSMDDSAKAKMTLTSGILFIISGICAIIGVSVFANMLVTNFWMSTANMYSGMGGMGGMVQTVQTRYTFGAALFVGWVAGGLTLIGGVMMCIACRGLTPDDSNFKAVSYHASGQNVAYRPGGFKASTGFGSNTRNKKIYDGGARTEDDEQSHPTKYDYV

[10] = target: T3, mouse claudin 18.1 (mCLDN18.1) (mouse, UniProt P56857 1-264); test: flow cytometry, HEK293-mCLDN18.1 cells, paraformaldehyde-fixed and non-fixed
T3 construct: the lung-type (A1) isoform is meant; also called HEK293-mCLDN18.1

[11] = target: T1, human claudin 18.2 (hCLDN18.2); test: flow cytometry on hCLDN18.2 low-expressing KATO III cells
Description: as §1

B1: 5-M9 human-mouse chimeric monoclonal antibody (antibody, human IgG1, V domains shown)
VH: QVQLKESGPVLVAPSQSLSITCTVSGFSLTTYGVQWVRQPPGKGLEWLGAIWAGGNTNYNSALMSRLSISKDNSKSQVFLKMNSLQTDDTAIYYCAKGGYGNAMDYWGQGTSVTVAS
VL: DIVMTQSPSSLTVTAGERVTMSCKSSQSLLNSGNQKNYLTWYQQKSGQPPKLLIYWASTRESGVPDRFTGSGSGTDFTLTISSVQAEDLAVYYCQNDYFFPFTFGSGTKLEIK
notes: Mouse V regions fused to human IgG1 (G1m17) heavy chain constant region and human kappa light chain constant region; also called 5-M9-A; Chi 5-M9
For B1, the “EC50” value [1] was 0.000287 ng/mL, the Maximum induction fold [1] was 40 fold and the “FACS binding signal (read-out unnamed)” value [2] was 341. For the same binder, the “FACS binding signal (read-out unnamed)” value [3] was 638, the “FACS binding signal (read-out unnamed)” value [4] was 83 and the Kd [5] was 48 pM. For the same binder, the “FACS binding signal (read-out unnamed)” value [6] was 289, the “FACS binding signal (read-out unnamed)” value [7] was 746 and the “FACS binding signal (read-out unnamed)” value [8] was 75.6.

B2: h5M9v9 humanized antibody (h5M9 VHv3 / h5M9 VLv3) (antibody, V domains shown)
VH: QVQLKESGPGLVAPSETLSITCTVSGFSLTTYGVQWVRQPPGKGLEWLGAIWAGGNTNYNSALMSRLTISKDNSKSQVSLKMSSVTAADTAIYYCAKGGYGNAMDYWGQGTLVTVSS
VL: DIVMTQSPSSLAVSLGERVTMNCKSSQSLLNSGNQKNYLTWYQQKPGQPPKLLIYWASTRESGVPDRFTGSGSGTDFTLTISSVQAEDLAVYYCQNDYFFPFTFGSGTKLEIK
notes: Human IgG1 (G1m17) heavy and human kappa light constant regions
In the case of B2, the “FACS binding signal (read-out unnamed)” value [2] is reported as 291, the “FACS binding signal (read-out unnamed)” value [3] is reported as 589 and the “FACS binding signal (read-out unnamed)” value [4] is reported as 66.8. The “FACS binding signal (read-out unnamed)” value [6] was 242, the “FACS binding signal (read-out unnamed)” value [7] was 636 and the “FACS binding signal (read-out unnamed)” value [8] was 59.2.

B3: 9-D1 human-mouse chimeric monoclonal antibody (antibody, human IgG1, V domains shown)
VH: EIQLQQSGAELVKPGASVKISCKASGYSFTDYHMNWVRQSHGKSLEWIGNIDPYYGSPTYNHKFKGKATLTVDKSSSTAYMQLISLTSEDSAVYYCANYGRGNSFPYWGQGTLVTVSA
VL: DIVMTQSPSSLTVTAGEKVTMSCKSSQSLLNSGNQRNYLTWYQQKPGQPPKLLLYWASTRESGVPDRFTGSGSGTDFTLTISSVQAEDLAVYYCQNDYSFPFTFGSGTKLEIK
notes: Mouse V regions fused to human IgG1 (G1m17) heavy chain constant region and human kappa light chain constant region; also called 9-D1-A
For B3, the “EC50” value [1] was 0.0074 ng/mL, the Maximum induction fold [1] was 35 fold and the Kd [5] was 49 pM.

B4: 163E12 human-mouse chimeric positive control antibody (antibody, V domains shown)
VH: QIQLVQSGPELKKPGETVKISCKASGYTFTNYGMNWVKQAPGKGLKWMGWINTNTGEPTYAEEFKGRFAFSLETSASTAYLQINNLKNEDTATYFCARLGFGNAMDYWGQGTSVTVSS
VL: DIVMTQSPSSLTVTAGEKVTMSCKSSQSLLNSGNQKNYLTWYQQKPGQPPKLLIYWASTRESGVPDRFTGSGSGTDFTLTISSVQAEDLAVYYCQNDYSYPLTFGAGTKLELKR
notes: Self-made, expressed in CHOS cells, Protein A purified; also called Benchmarker; Benchmark
With B4 the “EC50” value [1] was 0.0195 ng/mL, the Maximum induction fold [1] was 36.3 fold and the binding result [9] was “binds”. The binding result [10] was “no binding” and the Kd [5] was 137 pM.

B5: 175D10 human-mouse chimeric positive control antibody (antibody, V domains shown)
VH: QVQLQQPGAELVRPGASVKLSCKASGYTFTSYWINWVKQRPGQGLEWIGNIYPSDSYTNYNQKFKDKATLTVDKSSSTAYMQLSSPTSEDSAVYYCTRSWRGNSFDYWGQGTTLTVSS
VL: DIVMTQSPSSLTVTAGEKVTMSCKSSQSLLNSGNQKNYLTWYQQKPGQPPKLLIYWASTRESGVPDRFTGSGSGTDFTLTISSVQAEDLAVYYCQNDYSYPFTFGSGTKLEIKR
notes: Self-made, expressed in CHOS cells, Protein A purified; also called Benchmark
For B5, the EC50 [11] was 800 ng/mL, the “FACS binding signal (read-out unnamed)” value [2] was 318 and the “FACS binding signal (read-out unnamed)” value [3] was 567. The “FACS binding signal (read-out unnamed)” value [4] was 81.3, the Kd [5] was 189 pM and the “FACS binding signal (read-out unnamed)” value [6] was 296. For the same binder, the “FACS binding signal (read-out unnamed)” value [7] was 600.

B6: h5M9V10 humanized antibody (h5M9 VHv4 / h5M9 VLv1) (antibody, human IgG1, kappa, V domains shown)
VH: QVQLKESGPGLVAPSETLSITCTVSGFSLTTYGVQWVRQPPGKGLEWLGAIWAGGNTNYNSALMSRLTISKDNSKSQVSLKMSSLTAADTAIYYCAKGGYGNAMDYWGQGTLVTVSS
VL: DIVMTQSPSSLAVSLGERATMNCKSSQSLLNSGNQKNYLTWYQQKPGQPPKLLIYWASTRESGVPDRFSGSGSGTDFTLTISSVQAEDLAVYYCQNDYFFPFTFGQGTKLEIKR
notes: Human IgG1 (G1m17) / kappa
B6 was tested, and the “FACS binding signal (read-out unnamed)” value [2] was 316, the “FACS binding signal (read-out unnamed)” value [3] was 599 and the “FACS binding signal (read-out unnamed)” value [4] was 73.7. The “FACS binding signal (read-out unnamed)” value [6] was 292, the “FACS binding signal (read-out unnamed)” value [7] was 607 and the “FACS binding signal (read-out unnamed)” value [8] was 70.8.

B7: h5M9V12 humanized antibody (h5M9 VHv4 / h5M9 VLv3) (antibody, human IgG1, kappa, V domains shown)
VH: QVQLKESGPGLVAPSETLSITCTVSGFSLTTYGVQWVRQPPGKGLEWLGAIWAGGNTNYNSALMSRLTISKDNSKSQVSLKMSSLTAADTAIYYCAKGGYGNAMDYWGQGTLVTVSS
VL: DIVMTQSPSSLAVSLGERVTMNCKSSQSLLNSGNQKNYLTWYQQKPGQPPKLLIYWASTRESGVPDRFTGSGSGTDFTLTISSVQAEDLAVYYCQNDYFFPFTFGSGTKLEIKR
notes: Human IgG1 (G1m17) / kappa
With B7 the “FACS binding signal (read-out unnamed)” value [2] was 419, the “FACS binding signal (read-out unnamed)” value [3] was 589 and the “FACS binding signal (read-out unnamed)” value [4] was 103. For the same binder, the “FACS binding signal (read-out unnamed)” value [6] was 411, the “FACS binding signal (read-out unnamed)” value [7] was 673 and the “FACS binding signal (read-out unnamed)” value [8] was 90.

B8: h5M9V7 humanized antibody (h5M9 VHv3 / h5M9 VLv1) (antibody, human IgG1, kappa, V domains shown)
VH: QVQLKESGPGLVAPSETLSITCTVSGFSLTTYGVQWVRQPPGKGLEWLGAIWAGGNTNYNSALMSRLTISKDNSKSQVSLKMSSVTAADTAIYYCAKGGYGNAMDYWGQGTLVTVSS
VL: DIVMTQSPSSLAVSLGERATMNCKSSQSLLNSGNQKNYLTWYQQKPGQPPKLLIYWASTRESGVPDRFSGSGSGTDFTLTISSVQAEDLAVYYCQNDYFFPFTFGQGTKLEIKR
notes: Human IgG1 (G1m17) / kappa
B8 was tested, and the “FACS binding signal (read-out unnamed)” value [2] was 296, the “FACS binding signal (read-out unnamed)” value [3] was 631 and the “FACS binding signal (read-out unnamed)” value [4] was 84.3. The “FACS binding signal (read-out unnamed)” value [6] was 294, the “FACS binding signal (read-out unnamed)” value [7] was 732 and the “FACS binding signal (read-out unnamed)” value [8] was 73.3.
